Data taken from patent US7871610B2, “Antibodies to Tie1 ectodomain” (Dyax Corp., priority 2003, dated 2011).
“Also recorded” adds a separate entry of the source.

Assays:
mouse Tie1 = target: T1, mouse Tie1 (Mus musculus, UniProt Q06806); assay: Flow cytometry binding to mouse endothelial cell lines; conditions: MS1, Le-2, Bend3, SVEC and Tie-1 transfected Le-2 cells; biotinylated antibody
T1 construct: host or cells: mouse endothelial cell lines MS1, Le-2, Bend3, SVEC
Description: Specific binding of the Tie-1 antibodies and of control Mabs to mouse endothelial cells was measured by flow cytometry analysis (FACSscan, Becton Dickinson, Oxnard, Epics, Coulter). Mouse endothelial cell lines MS1, Le-2, Bend3, SVEC (ATCC, Rockville) and Tie-1 transfected Le-2 cells were stained. Cell staining was modified from existing protocols. About 200,000 cells were used in each experiment: after trypsinization, cells were washed one time in PBS and resuspended PBS, 10% Heat inactivated human serum (incubation buffer). To test specificity, antibodies were incubated at different dilutions for 1 h at room temperature. Cells were spun down by centrifugation for 3 min at 611 g. Between incubations cells were washed twice with PBS. […] After the final incubation step bound antibodies were detected by means of flow cytometry on a FACSCan and Epics Altra (Becton Dickinson, Oxnard, Coulter) and results analyzed.
Intracellular Tie-1 was measured as described above, except for the addition of Saponin to the incubation buffer to a final concentration of 0.1% during incubations. […] The binding pattern in mouse cell lines detected by flow cytometry is different from the binding pattern in HUVEC in that in mouse cells there is a greater cell surface staining than that compared to primary human endothelial cell lines.

[1] = target: T2, recombinant human Tie1-Fc (Homo sapiens, UniProt P35590); assay: BIAcore, E3 Fabs on recombinant human Tie1-Fc; format: binding; conditions: Fab
T2 construct: selected against the Tie1 extracellular domain fused to human Fc or to a histidine purification tag
T2 sequence (P35590 22-759 limits assumed): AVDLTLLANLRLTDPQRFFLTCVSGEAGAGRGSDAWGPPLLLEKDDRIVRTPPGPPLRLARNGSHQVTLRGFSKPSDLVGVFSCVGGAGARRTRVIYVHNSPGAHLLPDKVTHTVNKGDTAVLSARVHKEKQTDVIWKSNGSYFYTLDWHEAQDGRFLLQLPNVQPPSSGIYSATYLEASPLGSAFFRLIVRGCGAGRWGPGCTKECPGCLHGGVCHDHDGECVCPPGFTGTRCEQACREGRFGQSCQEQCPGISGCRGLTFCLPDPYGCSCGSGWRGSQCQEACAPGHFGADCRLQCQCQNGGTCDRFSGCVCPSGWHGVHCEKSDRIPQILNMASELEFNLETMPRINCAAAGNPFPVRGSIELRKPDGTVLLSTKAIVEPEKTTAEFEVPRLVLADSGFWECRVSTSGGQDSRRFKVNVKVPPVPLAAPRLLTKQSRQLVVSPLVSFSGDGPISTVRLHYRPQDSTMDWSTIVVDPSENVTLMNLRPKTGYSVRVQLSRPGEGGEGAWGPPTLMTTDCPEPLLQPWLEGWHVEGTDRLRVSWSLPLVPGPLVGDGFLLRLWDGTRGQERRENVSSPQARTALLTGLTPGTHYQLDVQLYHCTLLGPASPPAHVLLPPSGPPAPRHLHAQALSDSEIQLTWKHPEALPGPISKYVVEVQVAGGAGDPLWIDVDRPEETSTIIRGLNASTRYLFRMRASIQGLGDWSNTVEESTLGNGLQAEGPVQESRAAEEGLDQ
Description: Recombinant purified human Tie1-Fc antigen (Stock 2.45 mg/ml) was biotinylated using the EZ-link Sulfo-NHS-SS-Biotin (Pierce, Cat. 21331). The reaction was performed for 2 hours on ice in 50 mM sodium carbonate buffer, pH 9.6, in the presence of a 5-fold molar excess of biotinylating agent and was stopped by the addition of Tris-HCl, pH 7.5 (50 mM final concentration) followed by a 1-hour incubation on ice. Samples were then dialyzed against PBS. The antigen was then diluted 1/100 fold in HBS and was then captured onto a streptavidin chip. This was coated to a density of 830RU (resonance units). All analysis was performed in HBS buffer. The parental Fab E3 and germlined E3 Fab were prepared as described above. A stock solution of 0.587 mg/ml (11740 nM) was diluted 1/587 in HBS+BSA to obtain a stock of 20 nM and the germlined Fab E3 0.025 mg/ml (500 nM) was diluted 1/25 in HBS+BSA to obtain a stock of 20 nM. Serial dilutions were made of each Fab preparation to obtain 10 nM, 5 nM, 2.5 nM, and 1.25 nM solutions. For the association phase samples were injected at 30 μl/min for 4 minutes using kinject program. […] All samples were run and analyzed in duplicate.
Sensorgrams were analyzed using the simultaneous ka/kd fitting program with 1:1 model in the BIAEVALUATION™ software 3.1.

human platelets = assay: Flow cytometry binding to human platelets; conditions: non-activated human platelets, 2 and 10 μg/ml
Description: To avoid platelet activation, human platelets were isolated from plasma of healthy donors using the platelet GelSep kit (Biocytex, Marseille, France) kit according to the guidelines of the manufacturer. Platelets were activated by the addition of thrombin to a final concentration of 0.8 U/ml. To distinguish activated from non-activated platelets double staining was performed with Tie-1 antibodies/control antibodies and antibody CD42 (total platelets) or CD62 (activated platelets).
After preparation, platelets were resuspended in buffer 2 of the GelSep kit, 10% heat inactivated human serum (incubation buffer) and incubated for 1 hour. […] Platelets were spun down by centrifugation for 10 min at 611 g. Between incubations platelets were washed twice with Buffer 1 of the GelSep kit. Then, Strepatvidin-R-phycoerythrin together with anti-CD42-PercP or anti-CD62-PercP were incubated for 30 minutes at room temperature in incubation buffer After the last incubation and washing detection of bound antibodies was performed by means of flow cytometry on a FACSscan and Epics Altra (Becton Dickinson, Oxnard, Coulter) and results analyzed. Cells were gated on SSC and anti-CD42-PercP for the total platelets in case non-activated platelets were used and on SSC and anti-CD62-PercP for the activated platelets.

T1 sequence (Q06806 23-1134): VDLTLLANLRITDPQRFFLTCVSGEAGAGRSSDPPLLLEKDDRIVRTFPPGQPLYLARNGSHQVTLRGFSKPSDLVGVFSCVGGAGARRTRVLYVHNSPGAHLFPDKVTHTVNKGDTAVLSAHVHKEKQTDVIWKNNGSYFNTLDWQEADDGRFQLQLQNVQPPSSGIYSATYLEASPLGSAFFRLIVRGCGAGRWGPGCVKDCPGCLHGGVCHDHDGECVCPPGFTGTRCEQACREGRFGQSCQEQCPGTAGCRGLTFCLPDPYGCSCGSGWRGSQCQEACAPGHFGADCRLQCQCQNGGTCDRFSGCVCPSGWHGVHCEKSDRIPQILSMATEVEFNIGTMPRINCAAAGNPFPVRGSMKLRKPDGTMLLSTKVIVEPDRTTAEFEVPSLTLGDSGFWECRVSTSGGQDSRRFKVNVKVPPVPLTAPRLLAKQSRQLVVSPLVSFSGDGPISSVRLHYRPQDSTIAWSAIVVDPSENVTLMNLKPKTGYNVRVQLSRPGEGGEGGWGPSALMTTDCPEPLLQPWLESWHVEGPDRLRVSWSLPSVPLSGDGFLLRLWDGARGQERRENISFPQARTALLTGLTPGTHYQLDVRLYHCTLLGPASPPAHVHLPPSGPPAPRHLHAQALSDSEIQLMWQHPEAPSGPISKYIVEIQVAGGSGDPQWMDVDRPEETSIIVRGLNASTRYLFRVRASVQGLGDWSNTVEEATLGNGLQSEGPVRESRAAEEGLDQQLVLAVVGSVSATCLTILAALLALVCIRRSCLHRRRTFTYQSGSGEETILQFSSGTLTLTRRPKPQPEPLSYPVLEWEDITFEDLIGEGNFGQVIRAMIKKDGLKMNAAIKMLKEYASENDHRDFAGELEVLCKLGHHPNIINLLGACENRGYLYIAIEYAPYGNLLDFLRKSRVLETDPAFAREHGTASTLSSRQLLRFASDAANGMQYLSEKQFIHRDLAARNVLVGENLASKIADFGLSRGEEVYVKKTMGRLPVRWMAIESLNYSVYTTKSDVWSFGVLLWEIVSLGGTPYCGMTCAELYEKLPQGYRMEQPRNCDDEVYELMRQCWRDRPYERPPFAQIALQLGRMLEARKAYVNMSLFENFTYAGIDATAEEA

B1: E3: human anti-Tie1 antibody from Fab phage library; HC SEQ ID NO:114, LC SEQ ID NO:116 (antibody, V domains shown)
VH: EVQLLESGGGLVQPGGSLRLSCAASGFTFSMYGMVWVRQAPGKGLEWVSVISPSGGNTGYADSVKGRFTISRDNSKNTLYLQVNSLRAEDTAVYYCARAPRGYSYGYYYWGQGTLVTVSSASTKGPSVFPLAPSSKSTSGG
VL: DIQMTQSPLSLSASVGDRVTITCRASQGIGHYLAWYQQKPGKVPKLLIYTASTLQSGVPSRFSGSGSGTDFTLTINSLQPEDVATYYCQQFNSYPHTFGQGTRLDIK
modifications: Synthetically generated peptide
Mouse Tie1
  binding to mouse endothelial cell lines: binds to mouse endothelial cell lines
[1]
  effect of germlining on binding activity: minimal effect on the binding activity
Human platelets
  binding to total platelets (CD42): Only a background number; also recorded: no significant binding to total platelets
